Consider 3 sequences from the supplement of paper PMC9170038.

In this data set the test system is MS2 coat protein. The data set is described as follows: apparent KD of MS2 coat protein; designed switch direction (-1 OFF switch, 1 ON switch): -1; higher = weaker reporter binding. The conditions noted are these: Eterna round: R98. The method, then:
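RNA-MaP: designed FMN/MS2 RNA switches (84 nt design region) are transcribed on-chip within common flanks and titrated with SNAP-549-labelled MS2 coat protein (about 1-3000 nM) in 100 mM Tris pH 7.5, 80 mM KCl, 4 mM MgCl2, without or with 200 uM FMN. Median apparent KD per design; activation ratio = KD,OFF / KD,ON.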

For the sequence “UCGAACGGAAACAAAGUCGAUAGACAUGAGGAUCACCCAUGUCAGGAUAUGCCUACUAAAAGUAGGCAGAAGGGACGCGUUCGA [Contusion 7 - Jieux - Exclusion NG 3]”, the “apparent KD of MS2 coat protein” value stood at 18 nM (input ligand: FMN 200 uM) and 20.8 nM (input ligand: none).

As for “AGAUGACAAAGUCAUCUCGCGCAGACAUGAGGAUCACCCAUGUAGGAUAUACUACUCAAAGAGUAGUAGAAGGACAUGUGUCUU [Ex NG2 #57]”, the “apparent KD of MS2 coat protein” value turned out to be 111 nM (input ligand: FMN 200 uM) and 32.5 nM (input ligand: none).

On to “AGACUCAGAUGGUGCCAGCUUGCACAUGAGGAUCACCCAUGUCAGGAUAUCUUCGCUCCGAGAGAAGAGAAGGGACAAGAAUUU [Soedon]”, for which the “apparent KD of MS2 coat protein” value runs as follows: (input ligand: FMN 200 uM) 234 nM; (input ligand: none) 79.4 nM.
